Source: the supplement of paper PMC10567573

B1: TFE3 (parent)
chain: FPSDHLGDLGDPFHLGLEDILMEE

Variants of: B1
Experiment: protein stability index of a GFP-peptide fusion (GPS, HEK-293T) (PSI 1-6); higher = more stable
Settings: c terminus: a fixed tail appended
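Further: lentivirally expressed fusions sorted by FACS into six bins by GFP to DsRed ratio, PSI derived from sequencing read proportions per bin multiplied by bin number.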

Q: With FPSDHLGDLGDPFHLGLEDALMEE [I20A] as the variant, how does the protein stability index read?
A: Its protein stability index is 3.28.

Q: With FPSDHLGDLGDPFHLGLEDMLMEE [I20M] as the variant, how does the protein stability index read?
A: The protein stability index was 3.63.

Q: Which protein stability index does the source give for FPSDHLGDLGDPFHLGLEDVLMEE [I20V] here?
A: Its protein stability index is 3.48.

Q: For FPSDHLGDLGDPFHLGLEDYLMEE [I20Y], which protein stability index is on record?
A: The protein stability index was 3.88.

Q: For FPSDHLGDLGDPFHLGLEDHLMEE [I20H], which protein stability index is on record?
A: The protein stability index was 3.92.

Q: For FPSDHLGDLGDPFHLGLEDKLMEE [I20K], which protein stability index is on record?
A: The protein stability index was 4.05.

Q: Which protein stability index does the source give for FPSDHLGDLGDPFHLGLEDDLMEE [I20D] here?
A: Its protein stability index is 4.26.

Q: With FPSDHLGDLGDPFHLGLEDFLMEE [I20F] as the variant, how does the protein stability index read?
A: The protein stability index was 3.82.

Q: With FPSDHLGDLGDPFHLGLEDNLMEE [I20N] as the variant, how does the protein stability index read?
A: The protein stability index was 4.29.

Q: With FPSDHLGDLGDPFHLGLEDPLMEE [I20P] as the variant, how does the protein stability index read?
A: Its protein stability index is 3.77.

Q: With FPSDHLGDLGDPFHLGLEDWLMEE [I20W] as the variant, how does the protein stability index read?
A: Its protein stability index is 3.5.

Q: For FPSDHLGDLGDPFHLGLEDLLMEE [I20L], which protein stability index is on record?
A: The protein stability index was 3.91.

Q: For FPSDHLGDLGDPFHLGLEDELMEE [I20E], which protein stability index is on record?
A: Its protein stability index is 4.2.

Q: With FPSDHLGDLGDPFHLGLEDCLMEE [I20C] as the variant, how does the protein stability index read?
A: Its protein stability index is 3.84.

Q: With FPSDHLGDLGDPFHLGLEDTLMEE [I20T] as the variant, how does the protein stability index read?
A: The protein stability index was 3.97.

Q: Which protein stability index does the source give for FPSDHLGDLGDPFHLGLEDSLMEE [I20S] here?
A: The protein stability index was 3.7.

Q: Which protein stability index does the source give for FPSDHLGDLGDPFHLGLEDRLMEE [I20R] here?
A: The protein stability index was 3.5.

Q: For FPSDHLGDLGDPFHLGLEDQLMEE [I20Q], which protein stability index is on record?
A: The protein stability index was 4.37.

Q: Which protein stability index does the source give for FPSDHLGDLGDPFHLGLEDGLMEE [I20G] here?
A: The protein stability index was 4.16.

Q: With FPSDHLGDLGDPFHLGLEDIEMEE [L21E] as the variant, how does the protein stability index read?
A: The protein stability index was 4.28.

Q: With FPSDHLGDLGDPFHLGLEDIFMEE [L21F] as the variant, how does the protein stability index read?
A: The protein stability index was 3.28.

Q: For FPSDHLGDLGDPFHLGLEDIDMEE [L21D], which protein stability index is on record?
A: The protein stability index was 4.26.

Q: For FPSDHLGDLGDPFHLGLEDICMEE [L21C], which protein stability index is on record?
A: Its protein stability index is 3.42.

Q: Which protein stability index does the source give for FPSDHLGDLGDPFHLGLEDIAMEE [L21A] here?
A: The protein stability index was 4.03.

Q: For FPSDHLGDLGDPFHLGKEDILMEE [L17K], which protein stability index is on record?
A: Its protein stability index is 3.53.

Q: Which protein stability index does the source give for FPSDHLGDLGDPFHLGHEDILMEE [L17H] here?
A: Its protein stability index is 4.29.

Q: Which protein stability index does the source give for FPSDHLGDLGDPFHLGVEDILMEE [L17V] here?
A: Its protein stability index is 3.09.

Q: With FPSDHLGDLGDPFHLGFEDILMEE [L17F] as the variant, how does the protein stability index read?
A: The protein stability index was 3.1.

Q: With FPSDHLGDLGDPFHLGTEDILMEE [L17T] as the variant, how does the protein stability index read?
A: Its protein stability index is 3.47.

Q: With FPSDHLGDLGDPFHLGSEDILMEE [L17S] as the variant, how does the protein stability index read?
A: Its protein stability index is 3.86.

Q: With FPSDHLGDLGDPFHLGQEDILMEE [L17Q] as the variant, how does the protein stability index read?
A: The protein stability index was 3.55.

Q: Which protein stability index does the source give for FPSDHLGDLGDPFHLGCEDILMEE [L17C] here?
A: Its protein stability index is 3.5.

Q: With FPSDHLGDLGDPFHLGNEDILMEE [L17N] as the variant, how does the protein stability index read?
A: The protein stability index was 4.21.

Q: For FPSDHLGDLGDPFHLGGEDILMEE [L17G], which protein stability index is on record?
A: Its protein stability index is 3.7.

Q: Which protein stability index does the source give for FPSDHLGDLGDPFHLGMEDILMEE [L17M] here?
A: The protein stability index was 2.91.

Q: Which protein stability index does the source give for FPSDHLGDLGDPFHLGYEDILMEE [L17Y] here?
A: The protein stability index was 3.46.

Q: Which protein stability index does the source give for FPSDHLGDLGDPFHLGDEDILMEE [L17D] here?
A: The protein stability index was 4.5.

Q: With FPSDHLGDLGDPFHLGEEDILMEE [L17E] as the variant, how does the protein stability index read?
A: Its protein stability index is 4.11.

Q: With FPSDHLGDLGDPFHLGWEDILMEE [L17W] as the variant, how does the protein stability index read?
A: The protein stability index was 3.19.

Q: Which protein stability index does the source give for FPSDHLGDLGDPFHLGIEDILMEE [L17I] here?
A: Its protein stability index is 3.22.

Q: For FPSDHLGDLGDPFHLGPEDILMEE [L17P], which protein stability index is on record?
A: Its protein stability index is 3.67.

Q: For FPSDHLGDLGDPFHLGAEDILMEE [L17A], which protein stability index is on record?
A: The protein stability index was 3.92.

Q: With FPSDHLGDLGDPFHLGREDILMEE [L17R] as the variant, how does the protein stability index read?
A: The protein stability index was 3.55.

Q: For FPSDHLGDLGDPFHLGLELILMEE [D19L], which protein stability index is on record?
A: Its protein stability index is 2.03.

Q: With FPSDHLGDLGDPFHLGLESILMEE [D19S] as the variant, how does the protein stability index read?
A: The protein stability index was 2.69.

Q: For FPSDHLGDLGDPFHLGLEPILMEE [D19P], which protein stability index is on record?
A: The protein stability index was 3.31.

Q: Which protein stability index does the source give for FPSDHLGDLGDPFHLGLECILMEE [D19C] here?
A: The protein stability index was 2.91.

Q: For FPSDHLGDLGDPFHLGLEKILMEE [D19K], which protein stability index is on record?
A: Its protein stability index is 3.29.

Q: Which protein stability index does the source give for FPSDHLGDLGDPFHLGLEVILMEE [D19V] here?
A: Its protein stability index is 1.97.

Q: With FPSDHLGDLGDPFHLGLEWILMEE [D19W] as the variant, how does the protein stability index read?
A: Its protein stability index is 2.16.

Q: With FPSDHLGDLGDPFHLGLENILMEE [D19N] as the variant, how does the protein stability index read?
A: Its protein stability index is 3.06.

Q: Which protein stability index does the source give for FPSDHLGDLGDPFHLGLEHILMEE [D19H] here?
A: Its protein stability index is 3.29.

Q: For FPSDHLGDLGDPFHLGLEEILMEE [D19E], which protein stability index is on record?
A: Its protein stability index is 3.2.

Q: With FPSDHLGDLGDPFHLGLEFILMEE [D19F] as the variant, how does the protein stability index read?
A: Its protein stability index is 2.09.

Q: With FPSDHLGDLGDPFHLGLERILMEE [D19R] as the variant, how does the protein stability index read?
A: Its protein stability index is 2.77.

Q: With FPSDHLGDLGDPFHLGLEYILMEE [D19Y] as the variant, how does the protein stability index read?
A: The protein stability index was 1.91.

Q: Which protein stability index does the source give for FPSDHLGDLGDPFHLGLEIILMEE [D19I] here?
A: Its protein stability index is 2.92.

Q: Which protein stability index does the source give for FPSDHLGDLGDPFHLGLETILMEE [D19T] here?
A: Its protein stability index is 2.58.

Q: With FPSDHLGDLGDPFHLGLEAILMEE [D19A] as the variant, how does the protein stability index read?
A: Its protein stability index is 2.1.

Q: Which protein stability index does the source give for FPSDHLGDLGDPFHLGLEMILMEE [D19M] here?
A: Its protein stability index is 2.28.

Q: Which protein stability index does the source give for FPSDHLGDLGDPFHLGLEGILMEE [D19G] here?
A: Its protein stability index is 3.46.

Q: With FPSDHLGDLGDPFHLGLEQILMEE [D19Q] as the variant, how does the protein stability index read?
A: The protein stability index was 2.83.

Q: With FPSDHLGDLGDPFHLGLNDILMEE [E18N] as the variant, how does the protein stability index read?
A: The protein stability index was 3.12.

Q: For FPSDHLGDLGDPFHLGLFDILMEE [E18F], which protein stability index is on record?
A: The protein stability index was 1.91.

Q: Which protein stability index does the source give for FPSDHLGDLGDPFHLGLWDILMEE [E18W] here?
A: Its protein stability index is 2.65.

Q: Which protein stability index does the source give for FPSDHLGDLGDPFHLGLLDILMEE [E18L] here?
A: The protein stability index was 1.98.

Q: With FPSDHLGDLGDPFHLGLGDILMEE [E18G] as the variant, how does the protein stability index read?
A: Its protein stability index is 2.86.

Q: With FPSDHLGDLGDPFHLGLKDILMEE [E18K] as the variant, how does the protein stability index read?
A: Its protein stability index is 2.85.

Q: For FPSDHLGDLGDPFHLGLDDILMEE [E18D], which protein stability index is on record?
A: Its protein stability index is 3.87.

Q: For FPSDHLGDLGDPFHLGLSDILMEE [E18S], which protein stability index is on record?
A: The protein stability index was 3.51.

Q: For FPSDHLGDLGDPFHLGLIDILMEE [E18I], which protein stability index is on record?
A: Its protein stability index is 2.01.

Q: For FPSDHLGDLGDPFHLGLQDILMEE [E18Q], which protein stability index is on record?
A: The protein stability index was 2.89.

Q: Which protein stability index does the source give for FPSDHLGDLGDPFHLGLPDILMEE [E18P] here?
A: Its protein stability index is 3.07.

Q: For FPSDHLGDLGDPFHLGLVDILMEE [E18V], which protein stability index is on record?
A: Its protein stability index is 3.22.

Q: For FPSDHLGDLGDPFHLGLRDILMEE [E18R], which protein stability index is on record?
A: Its protein stability index is 2.28.

Q: Which protein stability index does the source give for FPSDHLGDLGDPFHLGLMDILMEE [E18M] here?
A: The protein stability index was 2.62.

Q: Which protein stability index does the source give for FPSDHLGDLGDPFHLGLADILMEE [E18A] here?
A: Its protein stability index is 2.7.

Q: Which protein stability index does the source give for FPSDHLGDLGDPFHLGLHDILMEE [E18H] here?
A: The protein stability index was 2.72.

Q: For FPSDHLGDLGDPFHLGLCDILMEE [E18C], which protein stability index is on record?
A: Its protein stability index is 2.18.

Q: Which protein stability index does the source give for FPSDHLGDLGDPFHLGLTDILMEE [E18T] here?
A: The protein stability index was 2.72.

Q: Which protein stability index does the source give for FPSDHLGDLGDPFHLGLYDILMEE [E18Y] here?
A: The protein stability index was 2.1.

Q: For FPSDHLGDLGDPFHLSLEDILMEE [G16S], which protein stability index is on record?
A: Its protein stability index is 3.26.

Q: Which protein stability index does the source give for FPSDHLGDLGDPFHLNLEDILMEE [G16N] here?
A: Its protein stability index is 3.34.

Q: Which protein stability index does the source give for FPSDHLGDLGDPFHLRLEDILMEE [G16R] here?
A: The protein stability index was 2.7.

Q: With FPSDHLGDLGDPFHLMLEDILMEE [G16M] as the variant, how does the protein stability index read?
A: The protein stability index was 3.51.

Q: Which protein stability index does the source give for FPSDHLGDLGDPFHLYLEDILMEE [G16Y] here?
A: Its protein stability index is 2.68.

Q: For FPSDHLGDLGDPFHLTLEDILMEE [G16T], which protein stability index is on record?
A: The protein stability index was 3.1.

Q: With FPSDHLGDLGDPFHLWLEDILMEE [G16W] as the variant, how does the protein stability index read?
A: The protein stability index was 1.85.

Q: Which protein stability index does the source give for FPSDHLGDLGDPFHLPLEDILMEE [G16P] here?
A: The protein stability index was 3.35.

Q: Which protein stability index does the source give for FPSDHLGDLGDPFHLLLEDILMEE [G16L] here?
A: The protein stability index was 2.4.

Q: Which protein stability index does the source give for FPSDHLGDLGDPFHLKLEDILMEE [G16K] here?
A: Its protein stability index is 3.3.

Q: With FPSDHLGDLGDPFHLILEDILMEE [G16I] as the variant, how does the protein stability index read?
A: The protein stability index was 2.31.

Q: Which protein stability index does the source give for FPSDHLGDLGDPFHLVLEDILMEE [G16V] here?
A: The protein stability index was 2.67.

Q: For FPSDHLGDLGDPFHLQLEDILMEE [G16Q], which protein stability index is on record?
A: Its protein stability index is 3.6.
